Data from US20200277405A1, “COMPOSITION FOR ANTIBODY-DRUG CONJUGATE DIRECTED AGAINST TUMOR-CELL ASSOCIATED POLYSIALIC ACID” (Cornell University, priority 2019, published 2020).

Tested on: polySia-positive cell lines SH-SY5Y, SW2, H69, and H82
Experiment: Internalization assay, polySia-positive cell lines
Format: cell-based, human
Conditions: after 1 h at 37° C.; each polySia-positive cell line
Method: FIGS. 10A-10E depict internalization of ch735 into polySia-positive cancer cells. […] Nuclei were stained by Hoescht (blue). Scale bar, 10 Fluorescence intensity was measured across the dotted line and normalized to the maximum value in each channel. Arrows indicate regions of colocalization. […] Nuclei were stained by Hoescht. Scale bar, 10 Fluorescence intensity was measured across the dotted line and normalized to the maximum value in each channel. Arrows indicate regions of colocalization. The inset show only the ch735 and DNA channels of the boxed region. […] Scale bar, 10 Fluorescence intensity was measured across the dotted white line and normalized to the maximum value in each channel. […]
To calculate percent internalization, pre-chilled cells were incubated with 50 nM ch735 on ice for 1 h and then washed to remove unbound antibodies. […] Cells were fixed in 2% paraformaldehyde for 20 min and then stained with AF488-labeled antibody against human IgG and analyzed by flow cytometry and FlowJo software. Receptor-antibody complex internalization was calculated using the geometric mean as percent fluorescent intensity loss at 37° C. relative to that on ice. For each sample, the geometric mean fluorescence intensity (MFI) of 10,000 cells was measured in triplicate.

B1: ch735: chimeric human IgG1 polySia-specific mAb made by swapping variable regions of mouse mAb 735 (antibody, V domains shown)
VH: QIQLQQSGPELVRPGASVKISCKASGYTFTDYYIHWVKQRPGEGLEWIGWIYPGSGNTKYNEKFKGKATLTVDTSSSTAYMQLSSLTSEDSAVYFCARGGKFAMDYWGQGTSVTVSS
VL: DVVMTQTPLSLPVSLGDQASISCRSSQSLVHSNGNTYLYWYLQKPGQSPKPLIYRVSNRFSGVPDRFSGSGSGTDFTLKISRVEAEDLGVYFCFQGTHVPYTFGGGTRLEIK
For B1, the antibody internalized was about 40%.
